Assay results as given in the DeepSol protein solubility set.

Test: soluble on expression in E. coli; label from the status in PepcDB or PDB records
For “MEIQIVTGFLGAGKTTFLNRYLPLLSGKTVVIENEFGDIGIDGDRIQEDIPVREIFAGCICCSLAMDFRKGIKEIAENFHPDRILIEPSGVGRLTDIVKACQMAREREKVSLQITKLIAIVDMASFEEYIEGFGAFYQDQIERAGLLLLSHVEAENKAQKEIIIGRLKELNPDAILYDGDWRQLENEELLKLLEEAPDYDEDARRDAAFAALPADKVFSSVSFMDLPQMRIEDLEAIMKALEKEEYGYILRAKGWIETMEKGLVHFDFTPTVSKYREEKNPAGTGGEAVVIGCGLNQAALEMLFRRKNILEHHHHHH”, the “soluble on expression in E. coli” value was “soluble”.
In the case of “MTGASRPPKSRRSAAAAPSPEGLTLDLERYVPAFITFIANKLSNSATAFYQGNFGVNVTEWRIMSLLAIEPGISAARICQVIGFNKGPVSRTLSDMQSRGLITIRVDPNDARTHSISLTGKGRATHDKVIVAALERERKLMSCLSADEQEVLIDLLRRLHNNLGAVTGETT”, the “soluble on expression in E. coli” value is reported as “not soluble”.
In the case of “APPGPPASGPCADLQSAINAVTGGPIAFGNDGASLIPADYEILNRVADKLKACPDARVTINGYTDNTGSEGINIPLSAQRAKIVADYLVARGVAGDHIATVGLGSVNPIASNATPEGRAKNRRVEIVVN”, the “soluble on expression in E. coli” value is reported as “soluble”.
In the case of “SKQNPLKRKRNDEITEEKVVLLMAMHKEDDEHQHTKPSPPSWEILCLVGPYMDPESLAVASCVSTTWSKCFSSEDLWKSLPATRHSIFAKAITKEGAKPAWLSYKRLISEAESAAKRRRNNQPAEPKISLSDLVFIVHVSAGSKEAVVVKQGKDLVFGSNERFQIEADVRDSGFTADMKDVSMSWNVVLRNYERMFLMSETVIKSLDSMIGWFTDELPGTKNRYCDGSNLVGEVKPSFNEDVLDKVVFAIADSRNWKSLFVDDVLRYLQCFLVD”, the “soluble on expression in E. coli” value is reported as “soluble”.
For “MSLTELPRIISVDDHVIEPAHLFETWLPKKYRDRGPKPLTAGIGELAYVGGKYQITMDPKGPPTDWWIYEDLKFPYKRNIAAVGFDRDEMTLEGITRAEMRRGCWDPVERLKDMDANHVEGSLCFPTFPRFCGQTFAEAHDKEVALACVRAYNDWMVEEWCGDSGGRLIPLCLIPLWDIGLAVAEIRRNAARGVKAVTFSEIPTHLGLPSIHSGYWDPFFAVCQETGTVVNMHIGSSSQMPAASPDAPPAVQAALSFNNAMASMMDFLFSGVLVKFPRLKLAYSEGQMGWIPYALERADDVWEEHRAWGGVRDLIPEPPSTYYYRQIFCCFFRDKHGVASIDVVGRDNATFETDYPHVDSTFPHTKEVALDHVEGLDDETVYKLMRGNAIRMLDLDLDRDLDHLGNRDHLGARDTLSSRDKADREGHHHHHH”, the “soluble on expression in E. coli” value was “soluble”.
For “MSGRSVRAETRSRAKDDIKKVMAATERVRRWEKKWVTVGDTSLRIFKWVPVTETKQIYKPKGAGPAVRELKGFPTDVVLENARSVLLDFQDDNSNQSFLSDAYQSNTKVDSSSNSSPQHVSEAVSPSHPPYYRTEDSQPPTLGQESMEAEREASTTSSEVTDEPPTLIKEDVLSLSTQEEEEAIGAPPLKRVCTEHNSTVS”, the “soluble on expression in E. coli” value was “not soluble”.
For “MKLPVPSPMRLAVTHEGRSIIYIPSPEYAVASGRLEPAWLEVFYNPAMEFNRDVSVVAASALRRTGLLTRSGVAFDAHAGVGVRGVRYAVEAGYVKVIMNDINPKASMLAALNARANGLEPGSYMIFNKESNSLMFHLSRERPTPVSLIDIDPYGSPAPFVDAALALSGKGTVVAMTATDLAVLEGGKARAAVRRYMLRSVSKTPVSKETGLRVLLGYVARVAAAHDKAVKPLLAYYADHYYRVYVAVERGARRSDSMLEENLGRLVYCPETGVALALSYAEDPASACGGSYVVAADPAWIGSLGDQAFLEAMLNIAVEAVWLGTRPRVEKLLNTLHGEAPLSPRSIYVSLTSVASKARVNTPKKSKVVELLRSMGYRAVATHFSGEGVRTDAPWGEVLEAVVKLGSSG”, the “soluble on expression in E. coli” value was “soluble”.
With “MKKDAKDHARNRLMDCYIKKAPTYAAIVKIEHFENDDASSKDFEPFVVYSLNKKKRWEINEESLNSSTEGTSTKSVIIDREIPDLQDSWWCLQNDLLNNCIYHSNPVNSAQMATAKKYEKVIGYHIVRIPVNHKKVFDKKCTRDLSYRYRDSIGNVPRDLTVLQYEMKEVEHGKEDFAKENISPEVNNPSKTIGFYNLEEHFVARKQQKSKGWLTVN” the “soluble on expression in E. coli” value was “not soluble”.
For “MSLIAVKPKKGHLLVAEPSITGDLSFNRSVVLLADHNCEGSVGFILNKPLGYTINDLIPEISARFKVYNGGPIEQDNLYFIHNIPQLIPNSIEIAEGIYWGGCFDSTRDLINQGKITQNNIRFFLGYSGWDAAQLQEELESNSWIISENNLHNKIIGKSSTDLWREKIKEQGGDYLIWSNAPENPILNEGHHHHHH”, the “soluble on expression in E. coli” value was “soluble”.
In the case of “MGSDKIHHHHHHVSTSVTKRPLTLVLASPRGFCAGVDRAIHIVERALEKYGAPVYVRHEIVHNRFVVESLAQKGAVFVEELDEVPDEAAVVFSAHGVPKTVPAEADRRGLTSLDATCPLVTKVHREAELHHAMGRQIIMIGHAGHPEVIGTIGQVPDGTVLLVGTPEEAEKVAPKNASMLAYITQTTLSVDDAAAVTEVLQRRFPEIVGPKREDICYATTNRQAAVKTIAPKCEALMVIGSPNSSNSSRLVEVAARAGCARSVLVQRAAEVDWSLLDGVDRLGITAGASAPEILVEEVVAAARERFDVTIEEIRVTTETVTFKLPQALSE”, the “soluble on expression in E. coli” value is reported as “not soluble”.
In the case of “MSLENLQTNFSLVQGSTKKLNGMGDDGSPPAKKMITDIHVNGKTINKVPTVKKEHLDDYGEAPVETDGEHVKRTCTSVPETLHLNPSLKHTLAQFHLSSQSSLGGPAAFSARHSQESMSPTVFLPLPSPQVLPGPLLIPSDSSTELTQTVLEGESISCFQVGGEKRLCLPQVLNSVLREFTLQQINTVCDELYIYCSRCTSDQLHILKVLGILPFNAPSCGLITLTDAQRLCNALLRPRTFPQNGSVLPAKSSLAQLKETGSAFEVEHECLGKCQGLFAPQFYVQPDAPCIQCLECCGMFAPQTFVMHSHRSPDKRTCHWGFESAKWHCYLHVNQKYLGTPEEKKLKIILEEMKEKFSMREGHHHHHH”, the “soluble on expression in E. coli” value is reported as “not soluble”.
With “VRKRMVIGLSTGSDDDDVEVIGGVDPRLIAVQENDSDESSLTDLVEQPAKVMRIGTMIKQLLEEVRAAPLDEASRNRLRDIHATSIRELEDGLAPELREELDRLTLPFNEDAVPSDAELRIAQAQLVGWLEGLFHGIQTALFAQQMAARAQLQQMRQGALPPGVGKSGQHGHGTGQYL” the “soluble on expression in E. coli” value was “soluble”.
With “GPGSMHDLVADDSQDGDNEVISSEVPLNKHAGDEEATRTSTFKYKKGILINQGYEFDGSSTTCAEVPASAWGSNITGDEEATTTSYVRVYVLVSSQAALKELALPPVGSKGASGVPHATGYVPLTAATRAILGANMENCGW” the “soluble on expression in E. coli” value was “not soluble”.
With “MGSDKIHHHHHHMNSNFLSSYPRDVIAVLVKDDQPLEQPKCNVRLAEFTYATVGVNGEPTTASAAMLVPGGPQCQGPYPLLGWGDGTQTLRRDEMAKDIRDAKGNDPLVTHLASQGYVVVSTDYLGLGKSSYPFHPYLHSATEANAMIDALRAARTVLDRLNTPLSGKVMLSGYSVGGHAAMASQREIEAHLSKEFNLVASAPIAGPYALEQTFVDSWSGRNTVGESTFGLVLASYAIVGMQHAYQNIYTAPSQVFRAPWAATVESQFPGTKSLLDLFVDLPEIGKVKQYFQADFYRDFASNPNNPFRKDLARNDLLDWRPRTKTLLCGSSNDATVPLKNATTAIAAFEQRGSTQVSLVDLGTGKASDNSAGEHLAIKDSCIVAVRQQLLDKQR” the “soluble on expression in E. coli” value was “not soluble”.
In the case of “MGSDKIHHHHHHMRITEMADRVSRTGIGKLAGASHQLHTLNTNERDNSAMAETSIEWTDATWNPVAGCTILTAGCTNCYAMRMAARLEAMGTEKYQGLTRKTGGRAKWTGKVVTDPKSLAIPATWSKPRRVFVNSMSDLFHVDVPADFIRQVWTVMEETPRHTYQILTKRPEVMASVLTRGEFPVLSNVWLGTSVEDSRVLSRLDDLRRVPASIRFVSLEPLIGSVAGANLTDINWAIVGGESGPGARDMDPRWVDEIEAMCRRSGTAFFFKQWGGRNKKATGRTLNGRTYDEMPAAI”, the “soluble on expression in E. coli” value is reported as “not soluble”.
With “MKKLAFAITAASGAAAVLSHHDAEASTQHKVQSGESLWTIAQQYNTSVESIKQNNNLSNNMVFPGQVINVGGSASQNTSSNTSSSSASSHTVVAGESLNIIANKYGVSVDALMQANHLNGYLIMPNQILTIPNGGSGSGSGGTATQTSGNYTSPSFNHQNLYTEGQCTWYVFDKRSQAGKPISTYWSDAKYWASNAANDGYQVDNTPSVGAIMQSTPGPYGHVAYVERINGDGSILISEMNYANGPYNMNYRTIPASEVSSYAFIHLEHHHHHH” the “soluble on expression in E. coli” value was “not soluble”.
In the case of “MGSDKIHHHHHHVLDKIELFILDMDGTFYLDDSLLPGSLEFLETLKEKNKRFVFFTNNSSLGAQDYVRKLRNMGVDVPDDAVVTSGEITAEHMLKRFGRCRIFLLGTPQLKKVFEAYGHVIDEENPDFVVLGFDKTLTYERLKKACILLRKGKFYIATHPDINCPSKEGPVPDAGSIMAAIEASTGRKPDLIAGKPNPLVVDVISEKFGVPKERMAMVGDRLYTDVKLGKNAGIVSILVLTGETTPEDLERAETKPDFVFKNLGELAKAVQ”, the “soluble on expression in E. coli” value is reported as “soluble”.
In the case of “MATAFTHSGKFHADDVFSAALLLYLNPEITITRGNRVPEDFDGIVFDIGRGRYDHHQKDSRVRENGIAYAAFGLLWEELGSEILGEELAQKFDEAFVQPLDNNDNTGEKNELASLIGNFNPTWDAEGSNDEAFFQAVSVAGMILENKFDRYRGNERADKRVEEIYERHMQAFHDREKHSEDAKILILPEFVPCQKFLSETPVAFVIFPSNRGGYCIQPQKKEYSMNYKCSFPSEWLGLENEELQEVTGLKTAGFCHKGGFLMTTGELADAVQACKISMEQFREKPVIVSFGGDTEYDELLHQIPKLQAAEIIHIDIQPLPEVEIQGIYAEVSMEKQEWKARIKEQVKQILKYKPEAVFVGENLFVAYPIVHALRKKHIPVLVPAEKDGQKLLIRIPSGSLEHHHHHH”, the “soluble on expression in E. coli” value is reported as “soluble”.
In the case of “MGSSHHHHHHSSGLVPRGSHMVNKRMSMVVSGLTPEEFMLVYKFARKHHITLTNLITEETTHVVMKTDAEFVCERTLKYFLGIAGGKWVVSYFWVTQSIKERKMLNEHDFEVRGDVVNGRNHQGPKRARESQDRKIFRGLEICCYGPFTNMPTDQLEWMVQLCGASVVKELSSFTLGTGVHPIVVVQPDAWTEDNGFHAIGQMCEAPVVTREWVLDSVALYQCQELDTYLIPQIP”, the “soluble on expression in E. coli” value is reported as “soluble”.
In the case of “MGSDKIHHHHHHMELKEHFNNKIFKLISETADELGLECYVVGGYVRDIFLKRPSKDIDVVVVGSGIEMAQAFGRKLGRGARVSVFKNFGTAQIKYHDTEVEFVGARKESYSHDSRKPVVENGTLEDDQNRRDFTINAMAVCLNKARFGELVDPFNGLDDLKERTIRTPLDPDITFSDDPLRMMRCVRFATQLNFYIDDTTFEALSRNKERIHIISKERIADELNKILLAPIPSKGFIELDRCGLLPLIFPELVALQGVETRNGRAHKDNFYHTLEVVDNISKHTDNLWLRWATLLHDIGKPRTKRWEPRIGWTFHNHNFIGEKMVPDLFRKMKLPMNEKMKYVQKLVSLHMRPIVIADDVVTDSAVRRLLFEAGDDIDDLMMLCEADITSKNEARKQKFLDNFKLVRQKLKDLEEKDRIRNFQPPVDGEEIMRIFDLQPCREIGSLKSSIKDAILDGIIPNEHDAALEHMLKKAKSMGLTPKNL”, the “soluble on expression in E. coli” value is reported as “not soluble”.
In the case of “GLVNAHTHLEMTPLIGAFSELELTEMLGSGTALFNRLGNGEFEYLVEAGVELAALNFLLGGVTTVNSMDARPAAGAEAFGEAGLRGFFGPAISDLFWDQPVDQQFSRAREFVETYHDTYDGRIRATICPHDDWSCTRQLWERTASLAAEYPDLLVHTHLLELEESNTMARANGGEDSVGLLDDVGLLDDRLVAAHFRLGDEEDIQRTAEADAAVAHCPSVFCYWNPDGETQWTPVPELRAAGVDVGVGIDDHYWHDSYSMFGEARQARLAANLKRSAGQFDSMELIRMLTIEGARALGMGDE”, the “soluble on expression in E. coli” value is reported as “not soluble”.
